Source: the RNAGym collection of RNA variant scans (doi:10.1073/pnas.2313332121)

B1: TPR t1 (parent)
chain: GACCAAUCUGCCCUCAGAGCUCGAGAACAUCUUCGGAUGCAGAGGAGGCAGGCUUCGGUGGCGCGAUAGCGCCAACGUCCUCAACCUCCAAUGCAUCCCACCACAUGAUGAUGCCUGAAGAGCCUUGGUUUUUUG

Variants of: B1
Test: polymerase ribozyme fitness, log enrichment relative to wild type (log ratio); higher = more active; in vitro selection for triplet polymerase activity
Outline: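 The heterodimeric triplet polymerase ribozyme's subunits were each mutagenized into PCR-built libraries and transcribed. Every library was selected once, in triplicate, by annealing with a biotinylated primer, the partner subunit and triplets, incubating frozen at −7 °C, gel-excising extended constructs, capturing on streptavidin beads and running RT-PCR. Input and output libraries were Illumina-sequenced, with genotypes kept only at ≥10 input reads and ≥1 read per output. Fitness, from inverse-variance-weighted replicate averages, is the base-2 logarithm of genotype enrichment over wild-type enrichment.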

Point of comparison: GUCCAAUCUGCCCUCAGAGCUCGAGAGCAUCUUCGGAUCCAGAGGAGGCAGGCUUCGGUGCUGCGAUAGCGCCAACGUCCUCAUCCUCCAAUGCAUCCCACCACAUGAUGAUGCCUGAAGAGCCUUGGUUUUUUG [A2U A27G G39C G61C C62U A84U], “polymerase ribozyme fitness (log ratio)” value -7.51. Against it:
- GUCCAAUCUGUCCUCAGAGCUCGAGAACAUCUUCGGAUGCAGAGGAGGCAGGCUUCGGUGGCGCGAUAGCGCCAACGUCCUCAACCUCCAAUGCAUGCCACCACAUGAUCAUGUCUGAACAGCCUUGGUUUUUUG [A2U C11U C97G G110C C114U G120C] — higher, -6.26
- GUCCAAUGUGCCCUUAGAGCUCGAGAACAUCUUCGGAUGCAGAGGAGGCAGGCUUCGGUGGCGUGAUAGCGCCAACGUCCUCAACCUCCAAUGCAUCCCACCACAUGAUGAUGCCUGAAGAGCCUUGGUUUUUUG [A2U C8G C15U C64U] — higher, -2.18
- GUCUAAUCUGCCCUCAGAGCUCGAGAACAUCUUCGGAUGCAGAGGAGGCAGGCUUCGGUGUCGCGAUAGCGCCAACGUCCUCAACCUCCAAUGCAUCCCAACACAUGAUGAUGCCUGAAGAGCCUUCGUUUUUUG [A2U C4U G61U C101A G127C] — higher, -3.03
- GUCCAAUCUGCCCUCAGAGCUCGAGAACAUCUUCGGAUGCGGAGGAGGCAGGCUACGGUGGCGCGAUAGCGACAACGUCCUCAACCUCCAAUGCAUCCCACCACAUGAUGAUGCCUGAAGAGCCUUGGUUUUUUG [A2U A41G U55A C72A] — higher, -2.61
- GUCCAAUCUGUCCUCAGAGCUCGAGAACAUCUUCGGAUGCAGAGGAGGCAGGCUUCGGUGGCGCGAUAACGCCAACGUCCUCAACCUCCAAUGCAUCCCACCACAUGAUGAUGCCUGAAGAGCCUUGGUUUUUUG [A2U C11U G69A] — higher, -4.07
- GUCCAAUCUGCCCUCAGAGCUCGAGAACAUCUUCGGAUGCAGAGGAGGCUGGCUUCGGUGGCGCGAUAGCGGCAACGUCCUCAACCUCCAAUGCAUCCCACCACAUGAUGAUGCCUGAAGAGCCUUGGUUUUUUG [A2U A50U C72G] — higher, -4.02
- GUCCAAUCUGCCCUCAGAGCUCGAGAACAUCUUCGGAUGCAGAGGAGGCAGGCUUCGGUGGCGCGAUAGCGCCAACGUCCUCAACCUCCAAUGCAUCCCUCCACAUGAUGAUGCCCGAAGAGCCUUGGUUUUUUG [A2U A100U U116C] — higher, -3.73
- GUCCAAUUUGGCCUCAGAGCUCGAGAACAUCUUCGGAUGCAGAGGAGGCAGGCUUCGGUGGCGCGAUAGCGCCAACGUCCUCAACCUCCAAUGCAUCCCACCACAUGAUGAUGCCUGAAGAGCCUUGGUUUUUUG [A2U C8U C11G] — higher, -0.458
- GUCCAAUCUGCCCUCAGAGCUCGAGAACAUCUUCGGAUGCAGAGGAGGCUGGCUUCGGUGGCGCGAUAGCGCCAACGUCCUCAACCUCCAAUGCCUCCCACCACAUGAUGAUGCCUGAAGAGCAAUGGUUUUUUG [A2U A50U A95C C124A U125A] — higher, -2.49
- GUGCAAUCUGCCCUCAGAGCUCGAGAACAUCUUCGGAUGCAGAGGAGGCAGGCUUCGAUGGCGCGAUAGCGCCAACGUCCUCAACCUCCAAUGCAUCCCACCACAUGAUGAUGCCUGAAGAGCCUUGGUUUUUUG [A2U C3G G58A] — higher, -2.99
- GUCCAAUCUGCCCUCAGAGCUCGAGAACAUCUUCGGAUGCAGAGGAGGCAGGCUUCGGUGGCGCGAUAGCGCCUACGUCCUUAACCUCCAAUGCAUCCCACCACAUGAUGAUGCCUGAAGAGCCUUGGUUUUUUG [A2U A74U C82U] — higher, -3.62
- GUCCAAUCUGCCCUCAGUGCUCGAGAACUUCUUCGGAUGCUGAGGAGGCAGGCUUCGGUAGCGCGAUAGCGCCAACGUCCUCAACCUCCAAUGCAUCCCACCACAUGAUGAUGCCUGAAGAGCCUUGGUUUUUUG [A2U A18U A29U A41U G60A] — higher, -5.23
- GUCGAAUCUGCCCUCAGAGCUGGAGAACAUCCUCGGAUGCAGAGGAGGCAGGCUUCGGUGGCGCGAUAGAGCCAACGUCCUCAACCUCCAAUGCAUCCCACCACAUGAUGUUGCCUGAAGAGCCUUGCUUUUUUG [A2U C4G C22G U32C C70A A111U G128C] — higher, -4.89
- GUCCAAUCUGCCCUCAGAGCUCGAGAACAUCUUCGGGUGCAGAGGAGGCAGGCUUCGGUGGCGCGAUAGCGCCAAGGUCCUCAACCUCCAAUGCAUCCCACCACAUGAUGAUGCCUGAAGAGCCUUGGUUUUUUG [A2U A37G C76G] — higher, -3.35
- GUCCAAUCUGUCCUCAGAGCUCGAGAACAUCUUCGGAUGCAGAGGAGGCAGGCUUCGGUGGCGCGAUAGCGCCAACGUCCUCAACCUCCAAUGCAUCCCACCACAUGAUGAUGCCUGAAGAGCCUUGGUUUUUUG [A2U C11U] — higher, -2.95
- GUCCAAUCUGCCCUCAGAGCUCGAGAACAUCUUCGGAUGCAGAGGAGGCCGGCUUCGGUGGCGCGAUAGUGCCAACGUCCUCAACCUCCAAUGCAUCCCAUCACAUGAUGAUGCCUGAAGAGCCUUGGUUUUUUG [A2U A50C C70U C101U] — higher, -3.18
- GUCCAAUCUGGCCUCAGAGCUCGAGAACAUCUUCGGAUGCAGAGGAGCCAGGCUUCGGUGGCGCGAUAGCGCCAACGUCCUCAACCUCCAAUGCAUCCCACCACAUGAUGAUGCCUGAAUAGCCUUGCUUUUUUG [A2U C11G G48C G120U G128C] — higher, -0.718
- GUCCAAUCUGCCCUCAGAGCUCGAGAACAUCUUCGGAUGCAGAGGAGGCUGGCUUUGGUGGCGCGAUAGCGCCAACGUCCUCAACCUCCAAUGCAUCCCACCACAUGAUGAUGCCUGAAGAGCCUUGGUUUUUUG [A2U A50U C56U] — higher, -3.13
- GUGCAAUCUGCCCUCAGAGCUCGAGAACAUCUUCGGAUGCAGAGGAGGCAGGCUUCGGUGGCGCGAUAGCGCCAACGUACUCAACCUCCAAUGCAUCCCACCACAUGAUGAUACCUGAAGAGCGUUGGUUUUUUG [A2U C3G C79A G113A C124G] — higher, -4.18
- GUCCAAUCUGCACUCAGAACUCGAGAACAGCUUCGGAUGCAGAGGAGGCAGGCUUAGGUGGCGCGAUAGCGCCAACGUCCUCAACCUCCAAUGCAUCCCACCACAUGAUGAAGGCUGAAGAGCCUUGGUUUUUUG [A2U C12A G19A U30G C56A U112A C114G] — higher, -7.24
